The target of the experiment is CM19XA (UniProt P15391). In words: SEC; ENrich SEC 650 column on an NGC system, running buffer PBS, peak positions compared with BioRad size exclusion standards; after Ni-NTA purification. In general terms: In gel filtration, larger molecules generally elute earlier.

Take “CM19XA (from UniProt P15391 20-291; Q9Y624 28-238)”: the stoichiometry N (commonly the number of molecules, sites or subunits per partner or assembly) turned out to be 2.
